Laboratory results reported in doi:10.1101/2020.08.17.253781 (2020).

Biological target: GST-LOV2GIVe (L) (Avena sativa | , UniProt O49003)

Kd: 270 nM
B1: His-Gαi3 (natural protein)
chain: MGCTLSAEDKAAVERSKMIDRNLREDGEKAAKEVKLLLLGAGESGKSTIVKQMKIIHEDGYSEDECKQYKVVVYSNTIQSIIAIIRAMGRLKIDFGEAARADDARQLFVLAGSAEEGVMTSELAGVIKRLWRDGGVQACFSRSREYQLNDSASYYLNDLDRISQTNYIPTQQDVLRTRVKTTGIVETHFTFKELYFKMFDVGGQRSERKKWIHCFEGVTAIIFCVALSDYDLVLAEDEEMNRMHESMKLFDSICNNKWFTDTSIILFLNKKDLFEEKIKRSPLTICYPEYTGSNTYEEAAAYIQCQFEDLNRRKDTKEVYTHFTCATDTKNVQFVFDAVTDVIIKNNLKECGLY
